Measurements reported in patent publication US8865473B2, “Luminescence detecting apparatuses and methods” (Applied Biosystems, LLC, priority 1999, dated 2014).

Target: T1, Orexin 2 Receptor (Homo sapiens, UniProt O43614)
T1 construct: host or cells: CHO cells co-expressing aequorin (CHO-Aeq-OX2-A2)
T1 sequence (O43614 1-444): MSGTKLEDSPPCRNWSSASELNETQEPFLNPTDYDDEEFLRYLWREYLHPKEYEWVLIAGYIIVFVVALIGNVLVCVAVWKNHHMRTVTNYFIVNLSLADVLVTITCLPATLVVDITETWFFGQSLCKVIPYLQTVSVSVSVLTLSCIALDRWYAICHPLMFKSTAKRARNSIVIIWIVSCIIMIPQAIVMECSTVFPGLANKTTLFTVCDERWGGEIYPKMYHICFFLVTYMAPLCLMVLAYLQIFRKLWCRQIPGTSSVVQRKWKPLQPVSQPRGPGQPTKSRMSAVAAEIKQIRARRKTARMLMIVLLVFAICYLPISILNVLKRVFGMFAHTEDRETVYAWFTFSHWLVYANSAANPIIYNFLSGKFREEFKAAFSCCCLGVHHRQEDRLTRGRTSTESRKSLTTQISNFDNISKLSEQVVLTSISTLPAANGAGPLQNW
Experiment: Aequorin luminescence agonist assay in CHO-Aeq-OX2-A2 cells on NorthStar
Assay type: cell-based
Details: coelenterazine h +/- 0.6 μM BAPTA-AM 4 hours, light integrated 20 seconds, unchanged in the presence of BAPTA-AM, read-out: reported EC50 for Orexin B
Protocol: CHO-Aeq-OX2-A2 cells (Euroscreen) were loaded with coelenterazine h+/−0.6 μM BAPTA-AM for 4 hours. The peptide agonist Orexin B was injected into the wells, and the emitted light was integrated for 20 seconds on the NorthStar™.

EC50: 0.75 nM
Substance: Orexin B
